What was measured:
[1] = molecular target: T1, human MerTK extracellular domain (ECD), recombinant (human, UniProt Q12866 21-505); test: SPR, Carterra LSA, antibody immobilised
T1 construct: also called huMerTK; not shown: polyHis tag or TEVS/Thrombin/murine IgG2a Fc tag
T1 sequence: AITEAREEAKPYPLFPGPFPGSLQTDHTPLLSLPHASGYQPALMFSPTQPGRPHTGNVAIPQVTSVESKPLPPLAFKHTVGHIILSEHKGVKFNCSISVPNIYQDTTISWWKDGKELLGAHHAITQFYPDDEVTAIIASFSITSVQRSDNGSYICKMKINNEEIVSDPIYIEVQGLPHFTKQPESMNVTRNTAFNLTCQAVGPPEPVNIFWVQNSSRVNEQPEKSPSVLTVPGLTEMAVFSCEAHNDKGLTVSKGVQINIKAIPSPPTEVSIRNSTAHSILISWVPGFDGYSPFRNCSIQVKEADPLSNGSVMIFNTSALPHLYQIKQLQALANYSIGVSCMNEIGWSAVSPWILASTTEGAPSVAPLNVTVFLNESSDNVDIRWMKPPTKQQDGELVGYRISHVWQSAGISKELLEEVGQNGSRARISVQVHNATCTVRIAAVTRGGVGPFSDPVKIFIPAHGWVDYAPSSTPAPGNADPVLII
Description: (§1) Binding kinetics of human anti-MerTK IgG1 LALAPS antibodies of the present disclosure to human, cyno, and murine MerTK were evaluated using a Carterra LSA instrument (Carterra, Salt Lake City, Utah). Briefly, anti-MerTK antibodies were prepared by diluting to 10 μg/ml in 10 mM Acetate, pH 4.25 (Carterra), at 300 μl/well. A HC200M sensor chip (Carterra) was activated using the single channel flow cell with a 7-minute injection of a 1:1:1 mixture of 100 mM MES pH 5.5, 100 mM sulfo-NHS, 400 mM EDC (all reconstituted in MES pH 5.5; 100 μl of each mixed in vial immediately before running assay). After switching to the multi-channel array flow cell, the antibodies were injected over the activated chip in a 96-spot array for 15 minutes. The remaining unconjugated active groups on the chip were then blocked by injecting 1M Ethanolamine pH 8.5 (Carterra) for 7 minutes using the single channel flow cell.
(§2) After priming with running buffer (HBS-TE, Carterra) with 0.5 mg/ml BSA (Sigma), the immobilized anti-MerTK antibodies were tested for their ability to bind to several forms of recombinant MerTK extracellular domain, including human, cynomolgus, and mouse orthologs as described above. Estimates of affinity were generated by injecting each analyte over the entire antibody array using the single channel flow cell. MerTK analytes were diluted to 33.3, 100, and 300 nM in running buffer, and injected in serial from lowest to highest concentration without regeneration. Two buffer blanks were run between each series (one species per series). Data were processed and analyzed using NextGenKIT high-throughput kinetics analysis software (Carterra).
(§3) The equilibrium dissociation constants (KD) were then calculated from the fitted association and dissociation rate constants (k-on and k-off) for anti-MerTK antibodies of the present disclosure. Binding kinetic analysis was also performed on anti-MerTK antibodies H1 (BioLegend, Clone ID: 590H11G1E3), H2 (R&D systems, Clone ID: 125518), M6 (WO2016/106221), and CDX AB2000-A7 hIgG1 (WO2019/084307).

[2] = molecular target: T2, murine MerTK extracellular domain (ECD), recombinant (mouse, UniProt Q60805 19-497); test: SPR, Carterra LSA, antibody immobilised
T2 construct: also called moMerTK; mouse MerTK; not shown: polyHis tag or TEVS/Thrombin/murine IgG2a Fc tag
T2 sequence: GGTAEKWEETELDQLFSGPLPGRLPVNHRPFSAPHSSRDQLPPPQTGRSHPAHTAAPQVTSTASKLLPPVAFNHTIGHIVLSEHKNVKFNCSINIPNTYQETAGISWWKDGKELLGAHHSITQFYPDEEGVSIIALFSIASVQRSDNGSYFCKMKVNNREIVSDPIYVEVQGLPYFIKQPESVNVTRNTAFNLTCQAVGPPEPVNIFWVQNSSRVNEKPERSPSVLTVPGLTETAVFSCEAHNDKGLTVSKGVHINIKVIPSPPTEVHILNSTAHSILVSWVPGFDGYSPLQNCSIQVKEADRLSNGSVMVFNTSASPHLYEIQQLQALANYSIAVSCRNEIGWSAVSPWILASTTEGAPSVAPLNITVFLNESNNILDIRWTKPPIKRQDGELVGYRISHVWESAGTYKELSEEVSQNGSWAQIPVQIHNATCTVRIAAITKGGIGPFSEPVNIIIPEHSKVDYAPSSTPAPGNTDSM
Description: as §1, §2, §3

[3] = molecular target: T3, cyno MerTK extracellular domain (ECD), recombinant (cynomolgus monkey, UniProt Q12866 21-505 (human entry)); test: SPR, Carterra LSA, antibody immobilised; LB = Low binding
T3 construct: also called cynomolgus MerTK; not shown: polyHis tag or TEVS/Thrombin/murine IgG2a Fc tag
T3 chain: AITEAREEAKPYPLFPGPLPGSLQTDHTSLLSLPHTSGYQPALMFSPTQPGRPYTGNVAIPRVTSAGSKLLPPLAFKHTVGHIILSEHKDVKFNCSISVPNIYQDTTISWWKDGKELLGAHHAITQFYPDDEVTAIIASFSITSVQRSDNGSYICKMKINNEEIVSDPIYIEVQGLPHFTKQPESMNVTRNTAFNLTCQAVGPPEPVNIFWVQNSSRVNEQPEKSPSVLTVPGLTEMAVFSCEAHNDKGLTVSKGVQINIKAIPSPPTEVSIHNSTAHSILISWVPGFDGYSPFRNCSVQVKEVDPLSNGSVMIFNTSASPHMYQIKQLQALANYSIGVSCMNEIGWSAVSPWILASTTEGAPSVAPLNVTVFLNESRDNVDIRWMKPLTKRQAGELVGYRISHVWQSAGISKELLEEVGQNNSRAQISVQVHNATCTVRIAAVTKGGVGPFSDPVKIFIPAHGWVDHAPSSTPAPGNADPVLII
Description: as §1
After priming with running buffer (HBS-TE, Carterra) with 0.5 mg/ml BSA (Sigma), the immobilized anti-MerTK antibodies were tested for their ability to bind to several forms of recombinant MerTK extracellular domain, including human, cynomolgus, and mouse orthologs as described above. […] Data were processed and analyzed using NextGenKIT high-throughput kinetics analysis software (Carterra).

[4] = molecular target: T4, human Axl ECD construct (Full Axl) with linker+His+Avi tag (human, UniProt P30530 26-451); test: SPR, Carterra LSA, antibody immobilised, construct supernatant injected
T4 construct: tested as Expi293 supernatant; also called ECD domain of human Axl
T4 sequence: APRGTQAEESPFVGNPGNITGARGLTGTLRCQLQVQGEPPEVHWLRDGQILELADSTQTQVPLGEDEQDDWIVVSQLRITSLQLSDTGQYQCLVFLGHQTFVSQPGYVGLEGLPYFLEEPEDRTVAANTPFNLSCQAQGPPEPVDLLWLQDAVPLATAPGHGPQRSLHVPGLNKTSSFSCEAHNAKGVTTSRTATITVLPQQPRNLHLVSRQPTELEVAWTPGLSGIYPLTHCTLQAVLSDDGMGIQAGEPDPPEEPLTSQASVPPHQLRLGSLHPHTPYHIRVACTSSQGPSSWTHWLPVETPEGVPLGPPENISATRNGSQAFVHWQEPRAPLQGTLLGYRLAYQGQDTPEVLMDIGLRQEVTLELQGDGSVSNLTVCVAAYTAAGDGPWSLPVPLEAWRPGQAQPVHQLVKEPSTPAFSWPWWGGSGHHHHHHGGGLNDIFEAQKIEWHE
Description: Binding of anti-MerTK antibodies of the present disclosure to these domain-swapped chimera or deletion mutants (prepared as described above) was tested by Surface Plasmon Resonance (SPR) using Carterra LSA. Purified anti-MerTK antibodies were immobilized in duplicate on a HC30M chip (Carterra) by amine coupling, following the manufacturer's instructions (described previously). Supernatants containing the constructs were diluted 1:1 with running buffer containing 0.5 mg/mL BSA (HBS-TE, Carterra) and injected over the immobilized antibodies. The surface was regenerated with 10 mM Glycine pH2.0 after each construct injection. Sensorgrams were analyzed using Carterra Epitope software to identify patterns of construct binding. Loss of binding to MerTK constructs with domains deleted or swapped in from Axl and/or gain of binding to Axl constructs with MerTK domains swapped in were evaluated. Data from these studies was used to construct a domain binding map for anti-MerTK antibodies and their binding to various domains of human MerTK.

Kd [1]: 54 nM
binding result [2]: no binding (tested: 300 nM)
binding result [3]: binds
binding result [4]: no binding
B1: MTK-22 (antibody, human IgG1, V domains shown)
VH: QVQLQQPGADLVEPGASVKLSCKASGYTFTSYWMHWVKQRPGQGLEWIGEIDPSDSSSNYNQKFKGKATLTVDKSSSTAYMHLNSLTSEDSAVYYCARRYYYGSLYFDNWGQGTTLTVSS
VL: DVVMTQSHKFMSTSVGDRVSITCKASQDVGTAIAWYQQKPGQSPKLLIYWASTRHTGVPDRFTGSRSGTVFTLTISNVQSEDLADYFCQQYTSYPLTFGSGTKLEIK
